US20040039175, “Modulation of viral gene expression by engineered zinc finger proteins” (published 2004)

Legend:
7N [1] = biological target: T1, 7N (synthetic construct); test: EMSA; intact t2 site; settings: tags: Promega TNT; label: radiolabel
6F6 (7N-4/3 six-finger) [2] = biological target: T2, 6F6 (7N-4/3 six-finger) (synthetic construct); test: EMSA; almost no affinity; 3 mismatches; settings: tags: Promega TNT; label: radiolabel
HIV-F = HIV-F (synthetic construct); test: ELONA; apparent Kd, phage ELISA, Zn2+; settings: protein: virion; label: biotin
6F6 (7N-4/3 six-finger) [3] = biological target: T2, 6F6 (7N-4/3 six-finger); test: EMSA; almost no affinity; 11 mismatches; settings: tags: Promega TNT; label: radiolabel
HIV-C = HIV-C (synthetic construct); test: ELONA; apparent Kd, phage ELISA, Zn2+; settings: protein: virion; label: biotin
7N [4] = biological target: T1, 7N; test: ELONA; apparent Kd comparable with Zif268, weakest of the three; phage ELISA; settings: protein: virion
HIV-G = HIV-G (synthetic construct); test: ELONA; apparent Kd, phage ELISA, Zn2+; settings: protein: virion; label: biotin
HIV-E = HIV-E (synthetic construct); test: ELONA; apparent Kd, phage ELISA; F3 subsite printed differently in original table; settings: protein: virion; label: biotin
7N [5] = biological target: T1, 7N; test: EMSA; settings: tags: Promega TNT; label: radiolabel
6F6 (7N-4/3 six-finger) [6] = biological target: T2, 6F6 (7N-4/3 six-finger); test: EMSA; almost no affinity; 8 mismatches; settings: tags: Promega TNT; label: radiolabel
HIV-D = HIV-D (synthetic construct); test: ELONA; apparent Kd, phage ELISA, Zn2+; settings: protein: virion; label: biotin
7N [7] = biological target: T1, 7N; test: EMSA; roughly similar apparent Kd to 4/3; settings: tags: Promega TNT; label: radiolabel
6F6 (7N-4/3 six-finger) [8] = biological target: T2, 6F6 (7N-4/3 six-finger); test: EMSA; affinity relative to 4/3 or 7N alone; settings: tags: Promega TNT; label: radiolabel

T2 sequence (chain, as listed by the source): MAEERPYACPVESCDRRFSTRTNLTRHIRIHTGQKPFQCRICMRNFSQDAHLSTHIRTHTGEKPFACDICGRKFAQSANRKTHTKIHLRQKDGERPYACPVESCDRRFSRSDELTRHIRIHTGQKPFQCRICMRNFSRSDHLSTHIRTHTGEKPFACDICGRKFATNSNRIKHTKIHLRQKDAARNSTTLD

B1: 68K probe (dsDNA)
DNA 1: CTTCCCGGTTCGGCGGTAATGAGATACGAG
DNA 2: CTCGTATCTCATTACCGCCGAACCGGGAAG
Q: Does B1 bind (7N [1])?
A: binds

Q: Does B1 bind (6F6 (7N-4/3 six-finger) [2])?
A: no binding

B2: HIV-F site (dsDNA)
DNA 1: GGAGCTCTCT
DNA 2: AGAGAGCTCC
Q: With B2 as the binder, how does the Kd (HIV-F) read?
A: 13.3 nM

B3: H2B probe (dsDNA)
DNA 1: ATAGAATCGCTTATGCAAATAAGGTGAAGA
DNA 2: TCTTCACCTTATTTGCATAAGCGATTCTAT
Q: Does B3 bind (6F6 (7N-4/3 six-finger) [3])?
A: no binding

B4: HIV-C site (dsDNA)
DNA 1: GATGCTGCAT
DNA 2: ATGCAGCATC
Q: How did the Kd (HIV-C) turn out when B4 was run?
A: 13.7 nM

B5: t2 (dsDNA)
DNA 1: TAATGAGAT
DNA 2: ATCTCATTA
Q: For B5, which Kd (7N [4]) is on record?
A: ~1 nM

B6: HIV-G site (dsDNA)
DNA 1: GCTAACTAGG
DNA 2: CCTAGTTAGC
Q: Which Kd (HIV-G) does the source give for B6 here?
A: 40.3 nM

B7: HIV-E site (dsDNA)
DNA 1: ATCTGAGCCT
DNA 2: AGGCTCAGAT
Q: Which Kd (HIV-E) does the source give for B7 here?
A: 36.6 nM

B8: IE110 probe (dsDNA)
DNA 1: TGGGTTCCGGGTATGGTAATGAGTTTCTTC
DNA 2: GAAGAAACTCATTACCATACCCGGAACCCA
Q: Does B8 bind (7N [5])?
A: binds

Q: Does B8 bind (6F6 (7N-4/3 six-finger) [6])?
A: no binding

B9: HIV-D site (dsDNA)
DNA 1: GCAGCTGCTT
DNA 2: AAGCAGCTGC
Q: B9 was tested. Which Kd (HIV-D) did it give?
A: 4 nM

B10: T24 probe (dsDNA)
DNA 1: CCGCCGGATCGGGCGGTAATGAGATGCCATG
DNA 2: CATGGCATCTCATTACCGCCCGATCCGGCGG
Q: Does B10 bind (7N [7])?
A: binds

Q: And the binding signal (6F6 (7N-4/3 six-finger) [8])?
A: ≥ 25 fold
